Substitutions are numbered along the chain they refer to. Numbers in names are those of the source. Each block holds one binder with its values, some of them ahead of it.
Legend:
Details in all cases: both partners purified
[1] = target: T1, HER2-ECD-His protein (Homo sapiens, UniProt P04626); assay: SPR; affinity: antibody captured at about 50 RU by goat anti-human IgG (γ) on CM5; HER2-ECD-His injected at 0 to 640 nM; fit to 1:1 (Langmuir) model
T1 construct: human epidermal growth factor receptor 2 (HER2), extracellular region (ECD); The SPR methods name HER2-ECD-His; The ELISA legends say only 'HER2-ECD protein'; also called HER2-ECD protein; extracellular region (ECD) of HER2; source: Freestyle 293 system, secreted, purified (Ni-NTA)

[2] = target: T1, HER2-ECD-His protein; assay: SPR; k off analysis of Fab: HER2-ECD-His immobilised on CM5 by amine coupling at about 2,000 RU; Fab injected at 2 μg/mL, 50 μL/minute
[3] = target: T1, HER2-ECD-His protein; assay: SPR; k off analysis of IgG: antibody captured at 1 μg/mL by goat anti-human IgG (γ) immobilised on CM5; HER2-ECD-His injected at 160 nM
[4] = target: T1, HER2-ECD-His protein; assay: SPR; affinity: antibody captured at about 50 RU by goat anti-human IgG (γ) on CM5; HER2-ECD-His injected at 0 to 640 nM; fit to 1:1 (Langmuir) model; remark: listed apart in the source

B1: chimeric 1E11 (antibody, V domains shown)
VH: EVKLVESGGGLVQPGGSLKLSCAASGFTFSSYTMSWVRQTPEKRLEWVAYISNGGGSTYYPDTVKGRFTISRDNAKNTLYLQMSSLKSEDTAMYYCARHLGGTASFDYWGQGTTVTVSS
VL: DIQMTQSPASQSASLGESVTITCLASQTIGTWLAWYQQKPGKSPQLLIYVATSLADGVPSRFSGSGSGTKFSFKISSLQAEDFVSYYCQQLYSTPWTFGGGTKLELK
notes: VH of murine 1E11; VL of murine 1E11; Chimeric IgG; also called ch1E11; parental ch1E11; source: Freestyle 293 system, purified (protein-A)
- Kd [1]: 23 nM

B4: clone 1F11 (IgG) (antibody, V domains shown)
VH: EVQLVESGGGLVQPGGSLRLSCAASGFTFSSYTMSWVRQAPGKGLEWVAYISNGGGSTYYPDTVKGRFTISRDNAKNSLYLQMNSLRAEDTAVYYCARHLGGTASFDYWGQGTLVTVSS
VL: DIQMTQSPSSLSASVGDRVTITCLASQTIGTWLAWYQQKPGKAPKLLIYVATSLADGVPSRFSGSGSGTDFTLTISSLQPEDFATYYCQQTAFSPWTFGQGTKVEIK
notes: as the VH of m4 (hz1E11); CDR-H3 HLGGTASFDY; as the VL of m4 (hz1E11); numbers count on: Kabat; IgG; also called L-1F11; source: Freestyle 293 system, purified (protein-A)
- koff [3]: 5.89e-05 s⁻¹
- Kd [4]: 1.4 nM
- koff [4]: 0.00012 s⁻¹
- kon [4]: 90000 M⁻¹ s⁻¹

B5: hz1E11 Fab, G97HA mutant (Fab, V domains shown)
VH: B4 VH with G101A
VL: B4 VL with T91L, A92Y, F93S, S94T
notes: as the VH of m4 (hz1E11); numbers count on: Kabat; as the VL of m4 (hz1E11); Fab in the vector pComb3X; also called G97A; source: E. coli DH5α, periplasmic extract, purified (IMAC)
- fold increase of k off (against the parental Fab) [2]: 17 fold

B8: L-1F11 + H-2A7 (IgG) (antibody, V domains shown)
VH: B4 VH with H99N, L100F
VL: B4 VL
notes: as the VH of m4 (hz1E11); numbers count on: Kabat; as the VL of m4 (hz1E11); IgG; source: Freestyle 293 system, purified (protein-A)
- koff [3]: 4.5e-05 s⁻¹

Next, values leading:

- fold increase of k off (against the parental Fab) [2]: 32 fold
B2: hz1E11 Fab, T99HA mutant (Fab, V domains shown)
VH: B4 VH with T103A
VL: B4 VL with T91L, A92Y, F93S, S94T
notes: as the VH of m4 (hz1E11); numbers count on: Kabat; as the VL of m4 (hz1E11); Fab in the vector pComb3X; source: E. coli DH5α, periplasmic extract, purified (IMAC)

- koff [3]: 2.8e-05 s⁻¹
- Kd [4]: 1.9 nM
- koff [4]: 0.00012 s⁻¹
- kon [4]: 64000 M⁻¹ s⁻¹
B3: clone 1A12 (IgG) (antibody, V domains shown)
VH: B4 VH
VL: B4 VL with T91N, F93Y, S94A
notes: as the VH of m4 (hz1E11); CDR-H3 HLGGTASFDY; as the VL of m4 (hz1E11); numbers count on: Kabat; IgG; also called L-1A12; source: Freestyle 293 system, purified (protein-A)

- koff [3]: 3.45e-05 s⁻¹
B6: L-1F11 + H-1B12 (IgG) (antibody, V domains shown)
VH: B4 VH with H99N, L100Y
VL: B4 VL
notes: as for B8

- koff [3]: 2.59e-05 s⁻¹
B7: L-1A12 + H-2A7 (IgG) (antibody, V domains shown)
VH: B4 VH with H99N, L100F
VL: B4 VL with T91N, F93Y, S94A
notes: as for B8

- koff [3]: 1.87e-05 s⁻¹
B9: L-1A12 + H-1B12 (IgG) (antibody, V domains shown)
VH: B4 VH with H99N, L100Y
VL: B4 VL with T91N, F93Y, S94A
notes: as the VH of m4 (hz1E11); numbers count on: Kabat; as the VL of m4 (hz1E11); IgG; also called combination of the VH of 1B12 and VL of 1A12; source: Freestyle 293 system, purified (protein-A)
